The series deals with the molecule itself. As to the kind of experiment: negative-stain electron microscopy of fibrils.

This is an account of results in paper PMC6330057 (Nature cell biology, 2018).

B1: CrSSNA1(1-105) (domain or fragment, Chlamydomonas reinhardtii, UniProt Q9XF62 1-105, looked up)
chain: MSAQGQALQNHNNELVKCIEDLREKREEIIKQLREDDAEKAKITQELQILTKRLAQVNESIARKTETKNEYDKVISETEAAYLKILESSQTLLTVLKREAVNIAK
Turning to B1, the binding result was “binds”.

B2: CrSSNA1(20-111) (domain or fragment, Chlamydomonas reinhardtii, UniProt Q9XF62 20-111, looked up)
chain: EDLREKREEIIKQLREDDAEKAKITQELQILTKRLAQVNESIARKTETKNEYDKVISETEAAYLKILESSQTLLTVLKREAVNIAKKKQASS
For the protein B2, the binding result is “binds”.
